Target: CIB-OVA (cimbuterol coupled to ovalbumin, detection/coating antigen) (UniProt P01012)
Assay: indirect ELISA of soluble scFv (periplasmic extract), steps as in Example 2 (CIB-OVA coated); negative control pCANTAB-5E/HB2151

Chain of UniProt P01012 (P01012 2-386 limits assumed, form in doubt): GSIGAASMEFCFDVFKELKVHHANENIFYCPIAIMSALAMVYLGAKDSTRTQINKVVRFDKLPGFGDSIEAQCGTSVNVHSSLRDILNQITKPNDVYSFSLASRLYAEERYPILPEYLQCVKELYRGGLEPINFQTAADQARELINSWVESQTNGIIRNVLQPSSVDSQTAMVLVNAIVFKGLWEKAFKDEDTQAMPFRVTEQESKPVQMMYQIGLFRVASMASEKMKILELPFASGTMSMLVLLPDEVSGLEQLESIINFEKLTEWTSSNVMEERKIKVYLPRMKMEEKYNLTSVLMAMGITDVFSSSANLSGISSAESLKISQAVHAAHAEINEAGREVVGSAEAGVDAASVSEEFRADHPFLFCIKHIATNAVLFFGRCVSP

B1: 5-CIB-ScFv (soluble anti-CIB single-chain antibody expressed from CIB-ScFv-pCANTAB5E in E. coli HB2151) (scFv, not shown: small tags and cut ends)
scFv: QVQLQESGADLVRPGTSVKVSCKASGYAFTNYLIEWVKQRPGQGLEWIGVINPGSGGTNYNEKFKGKATLTTDKSSSTAYMQLNSLTSEDSAVYFCKRPPMITTRRTGFDYWGQGTTVTVSSGGGGSGGGGSGGGGSDIELTQSPTTMAASPGEKITITCSATSSLSSNYLHWYQQKPGFSPKLLIYRTSNLASGVPTRFSGSGSGTSYSLTIGTMEAEDVATYYCHQYHRSPFTFGSGTKLEIKR
效价 (titre, P/N>2.1) (dilution factor (1:x)): 160
